Measured values: publication PMC10185811, “FAT10 and NUB1L cooperate to activate the 26S proteasome” (Life Science Alliance, 2023)

Key:
His6-RPN10 = biological target: T1, His6-RPN10 (human, UniProt P55036 1-377); assay: BLI; Octet; His6-RPN10 on the sensor; GST-FAT10 alone or together with NUB1LΔUBL in solution; Octet buffer; 1:1 binding model; conditions: both partners purified
T1 construct: RPN10 (hS5α), subunit of the 19S regulator of the 26S proteasome, human; also called His–RPN10; hS5α; source: recombinant; expression and purification described before (Rani et al, 2012)

[1] = biological target: T2, NUB1L (NEDD8 ultimate buster 1 long), tagless (human, UniProt Q9Y5A7-1 1-615); assay: BLI; Octet; His6-RPN1 loaded on the nickel sensor; NUB1L, GST-FAT10, NUB1L with GST-FAT10 or NUB1L with GST in solution; Octet buffer (PBS, 0.1% Triton X-100, 1x ROTIBlock); 1:1 binding model; conditions: both partners purified
T2 construct: NUB1L, human, the long splice variant of NUB1 with one UBL and three UBA domains, printed mass 69.1 kD; The long splice variant is meant; which UniProt isoform id holds it was not checked; By my reading of the printed primers the insert begins at Ala2 (AQKKYLQ) and runs to the stop codon; also called NUB1 long; full-length WT NUB1L; source: recombinant, cloned into the pSUMO vector; expression, …
T2 sequence (looked up): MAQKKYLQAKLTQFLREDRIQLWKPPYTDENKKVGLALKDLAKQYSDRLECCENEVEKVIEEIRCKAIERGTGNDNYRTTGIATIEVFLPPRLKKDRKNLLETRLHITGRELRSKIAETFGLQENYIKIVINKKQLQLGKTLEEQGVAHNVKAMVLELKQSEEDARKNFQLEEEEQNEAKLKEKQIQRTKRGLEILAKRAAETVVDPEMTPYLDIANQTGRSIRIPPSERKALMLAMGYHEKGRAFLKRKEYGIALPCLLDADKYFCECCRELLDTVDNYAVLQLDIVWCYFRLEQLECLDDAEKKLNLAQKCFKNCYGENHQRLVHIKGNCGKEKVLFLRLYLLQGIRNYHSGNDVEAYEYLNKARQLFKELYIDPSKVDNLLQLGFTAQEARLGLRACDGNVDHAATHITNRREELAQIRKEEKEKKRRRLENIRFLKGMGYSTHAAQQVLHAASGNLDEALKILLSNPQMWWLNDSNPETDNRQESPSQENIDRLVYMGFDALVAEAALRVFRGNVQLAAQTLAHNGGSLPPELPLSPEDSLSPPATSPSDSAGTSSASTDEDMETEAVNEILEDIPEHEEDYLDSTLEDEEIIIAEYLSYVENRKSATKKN

T1 sequence (P55036 whole entry): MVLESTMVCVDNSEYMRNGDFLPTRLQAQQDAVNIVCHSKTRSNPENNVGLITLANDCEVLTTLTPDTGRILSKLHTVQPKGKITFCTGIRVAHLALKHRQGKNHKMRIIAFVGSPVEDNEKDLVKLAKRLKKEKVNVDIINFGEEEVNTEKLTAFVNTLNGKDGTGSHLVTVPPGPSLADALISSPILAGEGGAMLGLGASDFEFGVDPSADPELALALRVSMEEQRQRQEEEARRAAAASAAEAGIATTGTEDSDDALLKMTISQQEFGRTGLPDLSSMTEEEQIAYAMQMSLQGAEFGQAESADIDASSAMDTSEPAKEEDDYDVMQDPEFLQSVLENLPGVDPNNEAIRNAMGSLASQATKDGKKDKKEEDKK

- binding result (His6-RPN10): binds
- binding result [1]: binds
B1: GST-FAT10 (natural protein, human, UniProt O15205 1-165, looked up)
chain: MAPNASCLCVHVRSEEWDLMTFDANPYDSVKKIKEHVRSKTKVPVQDQVLLLGSKILKPRRSLSSYGIDKEKTIHLTLKVVKPSDEELPLFLVESGDEAKRHLLQVRRSSSVAQVKAMIETKTGIIPETQIVTCNGKRLEDGKMMADYGIRKGNLLFLACYCIGG
notes: FAT10 (HLA-F adjacent transcript 10), human; source: recombinant; expression and purification previously described (Schmidtke et al, 2006)
